In patent US20230212319A1, “NOVEL ANTIGEN BINDING DOMAINS AND SYNTHETIC ANTIGEN RECEPTORS INCORPORATING THE SAME” (University of Southern California, priority 2020, published 2023):
Numbering of substitutions follows the chain as printed.

B1: 22068 (protein)
chain: MALPVTALLLPLALLLHAARPQLQLQESGPGLVKPSETLSLTCTVSGDSISSGDYYWGWIRQPPGKGLEWIGHIYYSGVTYYNPSLKSRVTISVDTSRNQFSLKLSSVTAADTAVYYCTREDSSNWRSRGQGTLVTVSSLEGGGGSGGGGSGGGGSVEDLKNVFPPEVAVFEPSKAEIAHTQKATLVCLATGFYPDHVELSWWVNGKEVHSGVCTDPQPLKEQPALNDSRYCLSSRLRVSATFWQNPRNHFRCQVQFYGLSENDEWTQDRAKPVTQIVSAEAWGRADCGITSASYHQGVLSATILYEILLGKATLYAVLVSALVLMAMVKRKDSRGRAKRSGSGATNFSLLKQAGDVEENPGPTSMDWIWRILFLVGAATGAHSFEVQLLESGGGLIQPGGSLRLSCAASGFTFSSHAMTWVRQAPGKGLEWVSAISGSGDYTHYADSVKGRFTISRDNSKNTVYLQMNSLRAEDSAVYYCAKDEDGGSLLGHRGQGTLVTVSSTRIQNPDPAVYQLRDSKSSDKSVCLFTDFDSQTNVSQSKDSDVYITDKCVLDMRSMDFKSNSAVAWSNKSDFACANAFNNSIIPEDTFFPSPESSCDVKLVEKSFETDTNLNFQNLSVIGFRILLLKVAGFNLLMTLRLWSSRAKRSGSGVKQTLNFDLLKLAGDVESNPGPSRGHMTEYKPTVRLATRDDVPRAVRTLAAAFADYPATRHTVDPDRHIERVTELQELFLTRVGLDIGKVWVADDGAAVAVWTTPESVEAGAVFAEIGPRMAELSGSRLAAQQQMEGLLAPHRPKEPAWFLATVGVSPDHQGKGLGSAVVLPGVEAAERAGVPAFLETSAPRNLPFYERLGFTVTADVEVPEGPRTWCMTRKPGA
B2: 22226 (protein)
chain: MALPVTALLLPLALLLHAARPACEVQLLESGGGLIQPGGSLRLSCAASGFTFSSHAMTWVRQAPGKGLEWVSAISGSGDYTHYADSVKGRFTISRDNSKNTVYLQMNSLRAEDSAVYYCAKDEDGGSLLGHRGQGTLVTVSSGTGPQGIFGQPGYINEFDIQMTQSPSSLSASVGDRVTITCKASDHINNWLAWYQQKPGQAPKLLIYGATTLETGVPSRFSGSGSGTDYTLTISSLQPEDFATYYCQQSWNTPWTFGQGTKLEIKRLEDLKNVFPPEVAVFEPSKAEIAHTQKATLVCLATGFYPDHVELSWWVNGKEVHSGVCTDPQPLKEQPALNDSRYCLSSRLRVSATFWQNPRNHFRCQVQFYGLSENDEWTQDRAKPVTQIVSAEAWGRADCGITSASYHQGVLSATILYEILLGKATLYAVLVSALVLMAMVKRKDSRGRAKRSGSGATNFSLLKQAGDVEENPGPTSATMDWIWRILFLVGAATGAHSGPEVQLVESGGGLVQAGGSLRLSCAASGRTFSMGWFRQAPGKEREFVAAITYSGGSPYYADSVKGRFTISRDNAKNTVYLQMNSLKPEDTAVYYCAANPTYGSDWNAENWGQGTQVTVSSGSGGGGSGGGGSGGGGSFEQVQLQQPGAELVKPGASVKMSCKASGYAFSSYWINWMKQKPGQGLEWIGQIYPGDGDTNYNGKFKGRATLTADTSSSTAYMQLSSLTSEDSAVYFCARSITTVVGCAMDYWGQGTSVTVSSTRIQNPDPAVYQLRDSKSSDKSVCLFTDFDSQTNVSQSKDSDVYITDKCVLDMRSMDFKSNSAVAWSNKSDFACANAFNNSIIPEDTFFPSPESSCDVKLVEKSFETDTNLNFQNLSVIGFRILLLKVAGFNLLMTLRLWSSRAKRSGSGVKQTLNFDLLKLAGDVESNPGPSRGHMTEYKPTVRLATRDDVPRAVRTLAAAFADYPATRHTVDPDRHIERVTELQELFLTRVGLDIGKVWVADDGAAVAVWTTPESVEAGAVFAEIGPRMAELSGSRLAAQQQMEGLLAPHRPKEPAWFLATVGVSPDHQGKGLGSAVVLPGVEAAERAGVPAFLETSAPRNLPFYERLGFTVTADVEVPEGPRTWCMTRKPGA
B3: 22123 (protein)
chain: MALPVTALLLPLALLLHAARPACEVQLLESGGGLIQPGGSLRLSCAASGFTFSSHAMTWVRQAPGKGLEWVSAISGSGDYTHYADSVKGRFTISRDNSKNTVYLQMNSLRAEDSAVYYCAKDEDGGSLLGHRGQGTLVTVSSGTGGGGSGGGGSGGGGSEFDIQMTQSPSSLSASVGDRVTITCKASDHINNWLAWYQQKPGQAPKLLIYGATTLETGVPSRFSGSGSGTDYTLTISSLQPEDFATYYCQQSWNTPWTFGQGTKLEIKRLEDLKNVFPPEVAVFEPSKAEIAHTQKATLVCLATGFYPDHVELSWWVNGKEVHSGVCTDPQPLKEQPALNDSRYCLSSRLRVSATFWQNPRNHFRCQVQFYGLSENDEWTQDRAKPVTQIVSAEAWGRADCGITSASYHQGVLSATILYEILLGKATLYAVLVSALVLMAMVKRKDSRGRAKRSGSGATNFSLLKQAGDVEENPGPTSATMDWIWRILFLVGAATGAHSGPQVQLQESGGGLAQAGGSLRLSCAASGRTFSMGWFRQAPGKEREFVAAITYSGGSPYYASSVRGRFTISRDNAKNTVYLQMNSLKPEDTAVYYCAANPTYGSDWNAENWGQGTQVTVSSGSGGGGSGGGGSGGGGSFEQVQLQQPGAELVKPGASVKMSCKASGYAFSSYWINWMKQKPGQGLEWIGQIYPGDGDTNYNGKFKGRATLTADTSSSTAYMQLSSLTSEDSAVYFCARSITTVVGCAMDYWGQGTSVTVSSTRIQNPDPAVYQLRDSKSSDKSVCLFTDFDSQTNVSQSKDSDVYITDKCVLDMRSMDFKSNSAVAWSNKSDFACANAFNNSIIPEDTFFPSSDVPCDVKLVEKSFETDTNLNFQNLSVIGFRILLLKVAGFNLLMTLRLWSSRAKRSGSGVKQTLNFDLLKLAGDVESNPGPSRGHMTEYKPTVRLATRDDVPRAVRTLAAAFADYPATRHTVDPDRHIERVTELQELFLTRVGLDIGKVWVADDGAAVAVWTTPESVEAGAVFAEIGPRMAELSGSRLAAQQQMEGLLAPHRPKEPAWFLATVGVSPDHQGKGLGSAVVLPGVEAAERAGVPAFLETSAPRNLPFYERLGFTVTADVEVPEGPRTWCMTRKPGA
B4: 22132 (protein)
chain: B3 chain with Q502E, Q506V, A513V, S560D, R563K
B5: 22114 (protein)
chain: MALPVTALLLPLALLLHAARPDIQMTQSPSSLSASVGDRVTITCKASDHINNWLAWYQQKPGQAPKLLIYGATTLETGVPSRFSGSGSGTDYTLTISSLQPEDFATYYCQQSWNTPWTFGQGTKLEIKRLEIQNPDPAVYQLRDSKSSDKSVCLFTDFDSQTNVSQSKDSDVYITDKCVLDMRSMDFKSNSAVAWSNKSDFACANAFNNSIIPEDTFFPSSDVPCDVKLVEKSFETDTNLNFQNLSVIGFRILLLKVAGFNLLMTLRLWSSRAKRSGSGVKQTLNFDLLKLAGDVESNPGPTSATMDWIWRILFLVGAATGAHSGPQVQLQESGGGLAQAGGSLRLSCAASGRTFSMGWFRQAPGKEREFVAAITYSGGSPYYASSVRGRFTISRDNAKNTVYLQMNSLKPEDTAVYYCAANPTYGSDWNAENWGQGTQVTVSSGSGGGGSGGGGSGGGGSFEQVQLQQPGAELVKPGASVKMSCKASGYAFSSYWINWMKQKPGQGLEWIGQIYPGDGDTNYNGKFKGRATLTADTSSSTAYMQLSSLTSEDSAVYFCARSITTVVGCAMDYWGQGTSVTVSSTREDLKNVFPPEVAVFEPSKAEIAHTQKATLVCLATGFYPDHVELSWWVNGKEVHSGVCTDPQPLKEQPALNDSRYCLSSRLRVSATFWQNPRNHFRCQVQFYGLSENDEWTQDRAKPVTQIVSAEAWGRADCGITSASYHQGVLSATILYEILLGKATLYAVLVSALVLMAMVKRKDSRGRAKRSGSGATNFSLLKQAGDVEENPGPSRGHMTEYKPTVRLATRDDVPRAVRTLAAAFADYPATRHTVDPDRHIERVTELQELFLTRVGLDIGKVWVADDGAAVAVWTTPESVEAGAVFAEIGPRMAELSGSRLAAQQQMEGLLAPHRPKEPAWFLATVGVSPDHQGKGLGSAVVLPGVEAAERAGVPAFLETSAPRNLPFYERLGFTVTADVEVPEGPRTWCMTRKPGA

tested on: L363 cells; assay: JNG assay, co-culture with L363 cells; type: cell-based; conditions: co-culture with L363
Method in brief: (§1)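 Jurkat NFAT-GFP (JNG) cells stably transduced with SARs by lentivirus, with drug selection where the construct carried a resistance gene, then co-cultured with target cells at E:T ~1:2 for ~4–18 h. % GFP-positive cells measured by FACS against parental JNG; +/- to 5+ correspond to ~5–50% GFP-positive.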

Question: With B1 as the molecule, how does the “NFAT-GFP ASSAY: L363” value read?
Answer: + (refer to approximately 5%, 10%, 20%, 30%, 40% and 50% GFP positive cells)

Question: With B2 as the molecule, how does the “NFAT-GFP ASSAY: L363” value read?
Answer: + (refer to approximately 5%, 10%, 20%, 30%, 40% and 50% GFP positive cells)

Question: For B3, which “NFAT-GFP ASSAY: L363” value is on record?
Answer: 3+ (refer to approximately 5%, 10%, 20%, 30%, 40% and 50% GFP positive cells)

Question: With B4 as the molecule, how does the “NFAT-GFP ASSAY: L363” value read?
Answer: 4+ (refer to approximately 5%, 10%, 20%, 30%, 40% and 50% GFP positive cells)

tested on: RAJI-CD19-KO cells; assay: JNG assay, co-culture with RAJI-CD19-KO cells; type: cell-based; conditions: co-culture with Raji-CD19-KO
Method in brief: as §1

Question: How did the “NFAT-GFP ASSAY: Raji-CD19-KO” value turn out when B5 was run?
Answer: 5+ (refer to approximately 5%, 10%, 20%, 30%, 40% and 50% GFP positive cells)

tested on: RAJI cells; assay: JNG assay, co-culture with RAJI cells; type: cell-based; conditions: JNG cells expressing construct, co-culture with Raji
Method in brief: as §1

Question: How did the “NFAT-GFP ASSAY: Raji” value turn out when B1 was run?
Answer: + (refer to approximately 5%, 10%, 20%, 30%, 40% and 50% GFP positive cells)

Question: Which “NFAT-GFP ASSAY: Raji” value does the source give for B2 here?
Answer: +/- (refer to approximately 5%, 10%, 20%, 30%, 40% and 50% GFP positive cells)

tested on: RS;411; assay: JNG assay, co-culture with RS;411 cells; type: cell-based; conditions: co-culture with RS411
Method in brief: as §1

Question: Which “NFAT-GFP ASSAY: RS411” value does the source give for B1 here?
Answer: +/- (refer to approximately 5%, 10%, 20%, 30%, 40% and 50% GFP positive cells)

Question: For B2, which “NFAT-GFP ASSAY: RS411” value is on record?
Answer: +/- (refer to approximately 5%, 10%, 20%, 30%, 40% and 50% GFP positive cells)

Question: For B5, which “NFAT-GFP ASSAY: RS411” value is on record?
Answer: 5+ (refer to approximately 5%, 10%, 20%, 30%, 40% and 50% GFP positive cells)

Question: For B3, which “NFAT-GFP ASSAY: RS411” value is on record?
Answer: 4+ (refer to approximately 5%, 10%, 20%, 30%, 40% and 50% GFP positive cells)

Question: How did the “NFAT-GFP ASSAY: RS411” value turn out when B4 was run?
Answer: 4+ (refer to approximately 5%, 10%, 20%, 30%, 40% and 50% GFP positive cells)

tested on: Nalm6 cells; assay: JNG assay, co-culture with Nalm6 cells; type: cell-based; conditions: co-culture with Nalm6
Method in brief: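 Jurkat NFAT-GFP reporter cells stably expressing lentivirally delivered SARs (puromycin or blasticidin selection) were cocultured with target cells at E:T ~1:2 for ~4–18 h. GFP was read by FACS, and % GFP+ cells were scored against parental reporter cells (+/-, +, 2+…5+ ≈ 5%, 10%, 20%…50%).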

Question: B1 was tested. Which “NFAT-GFP ASSAY: Nalm6” value did it give?
Answer: +/- (refer to approximately 5%, 10%, 20%, 30%, 40% and 50% GFP positive cells)

Question: With B2 as the molecule, how does the “NFAT-GFP ASSAY: Nalm6” value read?
Answer: + (refer to approximately 5%, 10%, 20%, 30%, 40% and 50% GFP positive cells)

Question: Which “NFAT-GFP ASSAY: Nalm6” value does the source give for B3 here?
Answer: 5+ (refer to approximately 5%, 10%, 20%, 30%, 40% and 50% GFP positive cells)

Question: With B4 as the molecule, how does the “NFAT-GFP ASSAY: Nalm6” value read?
Answer: 5+ (refer to approximately 5%, 10%, 20%, 30%, 40% and 50% GFP positive cells)
